The supplement of paper PMC9233669
Variants at the floor of the assay were thinned out.

Assays:
biotinyl-Phe-oxazolone = assay: self-aminoacylation, catalytic enhancement (BFO) (fold over background); higher = more active; k-Seq, kA / k0A0; sequences stand for … in GGGAAUGGAUCCACAUCUACGAAUUC…UUCACUGCAGACUUGACGAAGCUG
In short: (§1)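 Each biotinyl-aminoacyl-oxazolone, at 2–1250 μM, was incubated with mutagenized RNA pools (0.43 μM) carrying a 21-nt variable region. The 50 μL reactions contained HEPES/NaCl/KCl/MgCl2/CaCl2 buffer with 5% acetonitrile at pH 6.9–7.0 and ran for 90 minutes at room temperature. After streptavidin capture, RNA was measured by qPCR in triplicate and by Illumina sequencing, and catalytic enhancement was calculated as median kA over the uncatalyzed rate from a pseudo-first-order fit of per-sequence fraction reacted.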

biotinyl-Ile-oxazolone = assay: self-aminoacylation, catalytic enhancement (BIO) (fold over background); higher = more active; k-Seq, kA / k0A0; sequences stand for … in GGGAAUGGAUCCACAUCUACGAAUUC…UUCACUGCAGACUUGACGAAGCUG
In short: as §1

biotinyl-Met-oxazolone = assay: self-aminoacylation, catalytic enhancement (BMO) (fold over background); higher = more active; k-Seq, kA / k0A0; sequences stand for … in GGGAAUGGAUCCACAUCUACGAAUUC…UUCACUGCAGACUUGACGAAGCUG
In short: as §1

biotinyl-Val-oxazolone = assay: self-aminoacylation, catalytic enhancement (BVO) (fold over background); higher = more active; k-Seq, kA / k0A0; sequences stand for … in GGGAAUGGAUCCACAUCUACGAAUUC…UUCACUGCAGACUUGACGAAGCUG
In short: as §1

biotinyl-Leu-oxazolone = assay: self-aminoacylation, catalytic enhancement (BLO) (fold over background); higher = more active; k-Seq, kA / k0A0; sequences stand for … in GGGAAUGGAUCCACAUCUACGAAUUC…UUCACUGCAGACUUGACGAAGCUG
In short: as §1

biotinyl-Trp-oxazolone = assay: self-aminoacylation, catalytic enhancement (BWO) (fold over background); higher = more active; k-Seq, kA / k0A0; sequences stand for … in GGGAAUGGAUCCACAUCUACGAAUUC…UUCACUGCAGACUUGACGAAGCUG
In short: as §1

Sequence | self-aminoacylation (biotinyl-Phe-oxazolone) | self-aminoacylation (biotinyl-Ile-oxazolone) | self-aminoacylation (biotinyl-Met-oxazolone) | self-aminoacylation (biotinyl-Val-oxazolone) | self-aminoacylation (biotinyl-Leu-oxazolone) | self-aminoacylation (biotinyl-Trp-oxazolone)
AUUACCCUUGUCUUCGAGUGA [Fam2.1 aminoacylation ribozyme variant] | 18.9 | 2.64 | 4.46 | 2.73 | 4.49 | 6.14
AUUACCCUUGUGAUCGAGUGA [Fam2.1 aminoacylation ribozyme variant] | 50.1 | 3.2 | 7.15 | 3.53 | 7.77 | 9.16
AUUACCCUUUUCAUCGAGUGA [Fam2.1 aminoacylation ribozyme variant] | 25.2 | 2.88 | 6.39 | 3.68 | 6.32 | 7.27
AUUACCGUGGUCAGCGAGUGA [Fam2.1 aminoacylation ribozyme variant] | 19.3 | 3.02 | 4.54 | 3.1 | 4.64 | 6.24
AUUACCGUGGUCGUCGAGUGA [Fam2.1 aminoacylation ribozyme variant] | 2.81 | 1.2 | 1.09 | 1.06 | 1.18 | 0.591
AUUACCGUGUUCAUCGAGUGA [Fam2.1 aminoacylation ribozyme variant] | 20.2 | 3.72 | 6.78 | 3.92 | 6.23 | 8.08
AUUACCUAGGUCAUCGAGUGA [Fam2.1 aminoacylation ribozyme variant] | 6.96 | 4.2 | 6.35 | 4.01 | 7.92 | 7.91
AUUACCUCGGUCAUCGAGUGA [Fam2.1 aminoacylation ribozyme variant] | 20.8 | 2.82 | 5.12 | 2.87 | 5.32 | 6.06
AUUACCUGGGUCAUCGAGUGA [Fam2.1 aminoacylation ribozyme variant] | 5.6 | 2.83 | 5.07 | 3.05 | 4.74 | 5.91
AUUACCUUGGCCAUCGAGUGA [Fam2.1 aminoacylation ribozyme variant] | 2.01 | 1.95 | 2.38 | 1.62 | 2.5 | 3.26
AUUACCUUGGUCAUCCAGUGA [Fam2.1 aminoacylation ribozyme variant] | 22.5 | 3.16 | 4.51 | 2.84 | 4.83 | 5.48
AUUACCUUGGUCAUCGAAUGA [Fam2.1 aminoacylation ribozyme variant] | 0.902 | 1.14 | 0.77 | 0.945 | 1.1 | 0.837
AUUACCUUGGUCAUCGAGCGA [Fam2.1 aminoacylation ribozyme variant] | 1.02 | 1.55 | 1.5 | 1.83 | 1.74 | 1.57
AUUACCUUGGUCAUCUAGUGA [Fam2.1 aminoacylation ribozyme variant] | 47.8 | 4.49 | 9.34 | 4.72 | 8.77 | 11.2
AUUACCUUGGUCAUGGAGUGA [Fam2.1 aminoacylation ribozyme variant] | 4.26 | 2.97 | 4.16 | 2.72 | 4.42 | 5.57
AUUACCUUUGUCAUCGAGUGA [Fam2.1 aminoacylation ribozyme variant] | 20 | 3.25 | 5.22 | 3.06 | 6.05 | 6.87
AUUACGCCGGUCAUCGAGUGA [Fam2.1 aminoacylation ribozyme variant] | 81.9 | 3.94 | 7.36 | 4.89 | 7.93 | 8.28
AUUACGCUGGGCAUCGAGUGA [Fam2.1 aminoacylation ribozyme variant] | 43.1 | 3.69 | 7.19 | 4 | 7.76 | 6.96
AUUACGCUGGUCACCGAGUGA [Fam2.1 aminoacylation ribozyme variant] | 47.5 | 3.71 | 6.73 | 4.31 | 7.46 | 7.92
AUUACGCUGGUCAUCGAGUGU [Fam2.1 aminoacylation ribozyme variant] | 2.57 | 2.34 | 2.96 | 2.64 | 2.9 | 3.22
AUUACGCUGGUCAUCGCGUGA [Fam2.1 aminoacylation ribozyme variant] | 134 | 7.32 | 12.2 | 9.87 | 11.7 | 15.4
AUUACGCUGGUCAUCUAGUGA [Fam2.1 aminoacylation ribozyme variant] | 27.3 | 3.21 | 4.83 | 2.89 | 5.42 | 6.02
AUUACUCAGGUCAUCGAGUGA [Fam2.1 aminoacylation ribozyme variant] | 13.2 | 2.41 | 3.58 | 2.57 | 3.72 | 4.11
